Data as given in paper PMC4215538, “A clathrin coat assembly role for the muniscin protein central linker revealed by TALEN-mediated gene editing” (eLife, 2014).

Biological target: T1, AP-2 α appendage (mouse, UniProt P17427 701-938)
T1 construct: AP-2 αC subunit appendage, mouse, residues 701–938; It was added soluble to glutathione-Sepharose pull-downs, so GST was probably removed; also called αC appendage (mouse residues 701–938); purified AP-2 α appendage; source: purified (from the GST-αC appendage construct described previously)
Assay: pull-down; ~200 μg GST fusion on glutathione-Sepharose; rat brain cytosol supplemented with 5 μM or 25 μM purified AP-2 α appendage; recovery of the added α appendage in the pellets
Details: both partners purified

T1 sequence (P17427 701-938): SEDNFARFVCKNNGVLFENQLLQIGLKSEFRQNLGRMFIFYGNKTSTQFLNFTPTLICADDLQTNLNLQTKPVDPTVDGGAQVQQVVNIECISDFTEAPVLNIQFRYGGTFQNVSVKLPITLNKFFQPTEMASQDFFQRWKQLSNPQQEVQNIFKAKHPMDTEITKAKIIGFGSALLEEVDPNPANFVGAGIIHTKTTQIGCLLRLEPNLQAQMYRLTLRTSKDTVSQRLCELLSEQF

binding result: binds
B1: GST-EPS15 (595–740) (domain or fragment, UniProt P42566 595-740, looked up)
chain: SKEEDPFNVDSSSLTGPVADTNLDFFQSDPFVGSDPFKDDPFGKIDPFGGDPFKGSDPFASDCFFRQSTDPFATSSTDPFSAANNSSITSVETLKHNDPFAPGGTVVAASDSATDPFASVFGNESFGGGFADFSTLSKVNNEDPFR
notes: also called GST-EPS15 fusion; C-terminal region of EPS15; source: purified GST fusion (purification described in Umasankar et al., 2012)
